According to the nanobody polyreactivity screen of Harvey et al. (2022):

Experiment: yeast display, Sf9 membrane polyspecificity reagent, FACS + sequencing; frameworks hold sequencing errors
Procedure, shortened: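 Polyreactivity labels are assigned by the sorting gate from which each nanobody was recovered. The gates were low and high (top ~1%), set on anti-HA fluorescence for expression and streptavidin fluorescence for reagent binding. Before sorting, galactose-induced (36–48 hours) yeast display cells were stained for 1 hour at 4 °C with 10% biotinylated, detergent-solubilized Sf9 membrane reagent.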

Sequence | polyreactivity (PSR sort gate)
QVQLVESGGGLVQAGCSLRLSCAASGRIFGTNDMGWYRQAPGKERELVAAINGSDSSTYYADSVKGRFTISRDNAKNTVYFQMNSLKPEDTAVYYCNADWSGAPERSTDGYDYWGQGTQVTVSS | low polyreactivity
QVQLVESGGGLVQAGGSLRLSCAASGRIFSRYAMGWYRQAPGKERELVAAINKSGGSTYYADSVKGRFTISRDNAKNTVYLQMNSLKPEDTAVYYCNAVYYYGRRRYGYWGQGTQVTVSS | high polyreactivity
QVQLVESGGGLVQEGGSLRLSCAASGSTFSFYAMGWYRQAPGKERELVAAIDSGGRTKYADSVKGRFTISRDNAKNTVYLQMNSLKPEDSEVYYCGAVFRGWWLYDYWGKGTQVTVSS | low polyreactivity
QVQLVESGGGLVQAGGSLRLSCAASGRIFNIYAMGWYRQAPGKERELVAAISVSGTRTYYADSVKGRFTISRDNAKNTVYLQMNSLKPEDTAVYYCAADSYGGVWTEHMYYWGQGTQVTVSS | low polyreactivity
QVQLVESGGGLVQAGGSLRLSCAASGSIFAINAMGWDRQAPGKERELVAAITRGGSTYADSVKGRFTISRDNAKNTVYLQINSLKPEDTAVYYCAARWYRRGNGFNYWGQCTQVTVSS | high polyreactivity
QVQLVESGGGLVQAGGSLRLSCAASGGTFSYYAMGCYRQAPGKERELVASISTDGGSTYYADSVKGRFTISRDNAKNTVYLQMNSLKPEDTAVYYCNARPRGYSDRYGYWGQGTQVTVSS | high polyreactivity
QVQLVESGGGLVQAGGSLRLSCAASGSTFRRNAMGWYRQAPGKERELVAAISTSGGTTYYADSVKGRFTISRDNAKNTVYLQMNSLKPEDTAVYYCNKGGISGRDYWGLGTQVTVSS | high polyreactivity
QVQLVDSVGGLVQAGGSLSLSCAASGLIFASNAMGWYRQAPGKERELLATIRRGTSTNYADSVKGRFTISRDNAKNTVYLEMNSLKPEDTAVYYCAADGYTYKFDYWGQGTQVTVSS | low polyreactivity
QVQLVESGGGLVQAGGSLRLSCAASGRTFNFYTMGWYRQAPGKEREFVAGITSTGGSTDYADSVKGRFTISRDNAKNSVYLQMNSLKPEDTAVYYCNKVTSFVGEYDYWGQGTQVTVSS | high polyreactivity
QVQLVESGGGLVQAGGSLRLSCAASGSTFTAYTMGWYRQAPGKERELVAAISKIGTRTYYADSVKGRFTISRDNAKNTVYLQMNSLKPEDTAVYYCATGRSRVYNGRGDYWGQGTQVTVSS | high polyreactivity
QVQLVESGGGLVQAGGSLRLSCAASGRIFVGYTMGWYRQAPGKERELVASISWSGASTYYADSVKGRFTISRDNAKNTVYLQMNSLKPEDTAVYYCAARYYKYYNSYDYWGQGTQVTVSS | high polyreactivity
QVQLVESGAGLVQAGGSLRLSCAASGSTFDSYVMGWYRQAPGKERDLVAAISRRGGSTYYADSVKGRFTISRDNAKNSVYLQMNSLKPEDTAVYYCARTVGYRTLLESDSWGQGTQVTVSS | high polyreactivity
QVQLVESAGGLVQAGGSLPLSCAASGSTFASNTMGWYRQAPGKERELVAAITQSGGTTYYADSVKGRFTISRDNAKNTVSLQMNSLKPEDTAVYYCATDVGYFYTVVGGYDYWGTGTQVTVSS | low polyreactivity
QVQLVESGGGLVQAGGSLRLSCDASGFTFRAYPIGWYREAPGKERELVAAITYSGGRTYYADSVKGRFTISRDNAKNTVYLQMNSLKPEDTAVYYCANYDYWGQGTQVTVSS | high polyreactivity
QVQLVESGGGLVQAGGSLRLSCAASGITLTKYGMGWYRQAPGKERELVAAISGSGGSTYYADSVKGRFTISRDNAKNTVYLQMNSLKPEDTAVYYCAARALYPRYYYWGQGTQVTVSS | high polyreactivity
QVQLVESGGGLVQAGGSLRLSCAASGGIFRLYGMGWYRQAPGKERELVAAIRQSGGRTYYADSVKGRFTISRDNAKNTVYLQMNSLKPEDTAVYYCAADLLYRSSGSARLDYDYWGQGTQVTVSS | low polyreactivity
QVQLVESGGGLVQAGGRLRLSCAASGRTFGTYAKGWSRQATGKERELVAAIRSNAGSTYYADSVKGRFTISRDNAKITVYLQMNSLKPEDTAVYYCAKSYRSSRRYNYWGQGTQVNVSS | high polyreactivity
